Where a SMILES comes first, the peptide text is derived from it.
Key:
[1] = test system: HT1080 fibrosarcoma cells; assay: HT1080 cell invasion through Matrigel matrices; type: cell-based, human; settings: treatment of HT1080 cells with inhibitor
Description: (§1) The effect CystC and D14CystC on the invasion of HT1080 and 3T3-L1 cells was determined as described previously (42). Briefly, upper chambers were coated with 100 μl of diluted Matrigel (1:50 in serum-free media), which was allowed to evaporate to dryness overnight at room temperature. The following morning the Matrigel mixtures were rehydrated and subsequently cultured with control-, CystC-, or D14CystC-expressing HT1080 or 3T3-L1 cells at a density of 100,000 cells/chamber. Cellular invasion was stimulated by addition of 2% serum to the lower chambers. Forty-eight hr later, the cells were washed twice in ice-cold PBS and immediately fixed for 15 min with 95% ethanol. Cells remaining in the upper chambers were removed with a cotton swab, whereas those remaining in the lower chamber were stained with crystal violet. Quantifying invading cells was determined through two independent measures, which yielded identical results: (i) manual counting under a light microscope, and (ii) crystal violet dye extraction by incubation of the membranes in 10% acetic acid, followed by spectrophotometry at 590 nm.
Cathepsin B is a lysosomal cysteine proteinase that functions in intracellular protein catabolism, as well as in bone resorption, hormone activation, and antigen processing (5). During tumorigenesis, cancer cells express a cathepsin B splice variant whose protein product is secreted into the extracellular milieu (5) and localized to the leading edge of invasive tumors (19), thereby promoting cancer cell invasion and metastasis. However, recent evidence has questioned the role of intracellular versus extracellular cathepsin B in promoting cancer cell invasion (20). To distinguish between these two possibilities, human HT1080 fibrosarcoma cells that stably express the murine ecotropic receptor (21) were infected with control (i.e., GFP), CystC, or Δ14CystC retrovirus. Afterward, cells that expressed GFP were isolated by flow cytometry to establish stable polyclonal populations of control-, CystC-, and Δ14CystC-expressing HT1080 cells (data not shown). The inventor chose to study HT1080 cells because they are highly invasive, and because they express large quantities of secreted cathepsin B and comparably little CystC (22). Thus, if extracellular cathepsin B mediates HT1080 cell invasion, it was hypothesized that overexpression of secreted CystC would attenuate their invasion through synthetic basement membranes.
Briefly, GFP-, CystC-, or Δ14CystC-expressing HT0180 cells were allowed to invade through Matrigel-coated membranes for 48 hr. Data shown in FIG. 1A are the mean (±SE) of three (Δ14CystC) and nine (GFP and CystC) independent experiments presented as the percent invasion relative to GFP-expressing HT1080 cells (***, p<0.05; Student's T-Test).

[2] = test system: TGF-β receptors (TβR-I, TβR-II, TβR-III); assay: Iodinated TGF-β1 radioligand binding and cross-linking assay on Mv1Lu cells; parameters: species or system mink; settings: [125I]TGF-β1 200 pM, recombinant protein 0-10 μg/ml, 3 hr at 4° C.
Description: Mink lung Mv1Lu epithelial cells were plated onto 6-well plates and grown until 90% confluency. The radioligand binding and cross-linking of iodinated TGF-β1 (200 pM) to Mv1Lu cells in the absence or presence of increasing concentration of recombinant GST-Jun(1-79) or -CystC was performed as described previously (44). Afterward, cytokine:receptor complexes contained in detergent-solubilized whole cell extracts were isolated by immunoprecipitation with anti-TβR-II antibodies as described previously (44). TGF-β1 bound to cell surface TβR-I, TβR-II, and TβR-III was visualized by exposure of the dried gels to a phosphor screen, which were developed 1-3 d later on a Molecular Dynamic Typhoon Scanner. Total bound TGF-β1 was defined as the sum of signal intensities for TGF-β1 cross-linked to TβR-I, TβR-II, and TβR-III in each condition.
Mink lung Mv1Lu epithelial cells were incubated for 3 hr at 4° C. with [125I]TGF-β1 (200 pM) in the absence or presence of increasing concentrations (0-10 μg/ml; 0, 0.5, 1, 5, 10) of recombinant Jun(1-79) or CystC. Cytokine:receptor complexes were cross-linked by addition of disuccinimidyl suberate, and subsequently isolated from detergent-solubilized whole cell extracts by immunoprecipitation with anti-TβR-II antibodies. […]

[3] = test system: NMuMG mammary epithelial cells; assay: TGF-β-stimulated actin cytoskeletal reorganization (EMT) in NMuMG cells, rhodamine-phalloidin immunofluorescence; type: cell-based, murine; settings: recombinant protein treatment 10 μg/ml; TGF-β1 5 ng/ml; NMuMG cells
Description: (§2) The ability of TGF-β to alter actin cytoskeletal architecture and E-cadherin expression was monitored essentially as described (Piek et al., 1999). Briefly, control-, CystC-, or Δ14CystC-expressing NMuMG cells were allowed to adhere overnight to glass coverslips in 24-well plates (50,000 cells/well). The cells were stimulated the following day with TGF-β1 (5 ng/ml) for 0-36 hours at 37° C. In some experiments, control NMuMG cells were stimulated with TGF-β1 in the absence or presence of 10 μg/ml of recombinant GST, GST-CystC, or GST-Δ14CystC. Upon completion of agonist stimulation, the cells were washed in ice-cold PBS and immediately fixed in 3.7% formaldehyde. After extensive washing in PBS, the cells were blocked in PBS supplemented with 1.5% FBS, followed by incubation with rhodamine-phalloidin (0.25 μM). […]
(§3) To test this hypothesis, the inventor first examined whether CystC and a CystC mutant impaired in its ability to inhibit cathepsin protease activity (i.e., Δ14CystC) could antagonize TGF-β stimulation of EMT in MECs. […] TGF-β stimulation of EMT is studied routinely in murine NMuMG MECs, which readily undergo EMT when treated with TGF-β (Piek et al., 1999; Miettinen et al., 1994; Gotzmann et al., 2004). […] E-cadherin expression was monitored by indirect immunofluorescence with anti-E-cadherin antibodies.
In another experiment, NMuMG cells were infected with ecotropic retrovirus encoding either GFP (i.e., control), CystC, or Δ14CystC, and subsequently were isolated by FACS-sorting for GFP expression to yield stable polyclonal populations of control, CystC, and Δ14CystC-expressing cells. The expression and secretion of recombinant CystC proteins by infected NMuMG and NRK cells was monitored by immunoblotting conditioned-media with anti-CystC antibodies. […] Next, the control, CystC-, and Δ14CystC-expressing NMuMG cells were incubated in the absence or presence of TGF-β1 (5 ng/ml) for 36 hours, whereupon E-cadherin expression was monitored by immunoblotting with anti-E-Cadherin antibodies. […]

3T3-L1 fibroblasts = assay: 3T3-L1 cell invasion through Matrigel matrices; type: cell-based, murine; settings: recombinant protein 10 mg/ml; TGF-β1 5 ng/ml; 48 hr
Description: as §1
In some experiments, the effects of recombinant CystC and D14CystC on 3T3-L1 cell invasion was examined. To do so, 3T3-L1 cells (100,000 cells/chamber) were allowed to invade through Matrigel […], together with or without 5 ng/ml of TGF-β1. All subsequent procedures were performed as described above.
GFP-, CystC-, or Δ14CystC-expressing 3T3-L1 cells were allowed to invade through Matrigel-coated filters in the absence or presence of TGF-β1 (5 ng/ml) for 48 hr, and the results are shown in FIG. 2A. […] Data are the mean (±SE) of four independent experiments presented as the percent invasion relative to GFP-expressing 3T3-L1 cells.
Moreover, the inhibitory effects of CystC on 3T3-L1 cell invasion could be recapitulated by addition of recombinant CystC fusion proteins. Control or TGF-β1-stimulated (5 ng/ml) 3T3-L1 cells were allowed to invade through Matrigel-coated filters for 48 hr in the absence or presence of recombinant (10 mg/ml) GST, GST-CystC, or GST-D14CystC as indicated in FIG. 2B. […] Data are the mean (±SE) of three independent experiments presented as the percent invasion relative to untreated 3T3-L1 cells. […] Collectively, these findings indicate that 3T3-L1 cell invasion proceeds through cathepsin B-dependent and TGF-β-dependent pathways.

TGF-β signaling = assay: p3TP-luciferase reporter gene assay in 3T3-L1 cells; type: cell-based, murine; settings: recombinant protein 10 mg/ml; TGF-β1 5 ng/ml; 3T3-L1 cells; p<0.05
Description: Analysis of luciferase activity driven by the synthetic p3TP reporter ((26); generously provided by Dr. Joan Massague, Sloan Kettering) was performed as described previously (42). Briefly, control, CystC-, or Δ14CystC-expressing 3T3-L1 or HT1080 cells were cultured onto 24-well plates at a density of 45,000 cells/well and allowed to adhere overnight. The cells were transiently transfected the following morning by overnight exposure to LT1 liposomes (Mirus) containing 300 ng/well p3TP-luciferase and 100 ng/well of pCMV-β-gal. Afterward, the cells were washed twice with PBS and stimulated overnight in serum-free media with increasing concentrations of TGF-β1 as indicated. The following morning, luciferase and β-gal activities contained in detergent-solubilized cell extracts were determined.
In some experiments, the effects of recombinant CystC and D14CystC on p3TP-luciferase activity 3T3-L1 cells was determined. […] All subsequent procedures were performed as described above.
The present inventor's findings that TGF-β signaling was inhibited by CystC (FIGS. 1 and 2) independent of its actions on cathepsin B lead them to hypothesize CystC as a general antagonist of TGF-β signaling. To test this hypothesis, changes in p3TP-driven luciferase activity were monitored in control, CystC-, Δ14CystC-expressing cells before and after their stimulation with TGF-β. Briefly, GFP-, CystC-, or Δ14CystC-expressing 3T3-L1 cells were transiently transfected with p3TP-luciferase and pCMV-β-gal, and subsequently stimulated with increasing concentrations of TGF-β1 (0-5 ng/ml) as indicated in FIG. 3A. Afterward, luciferase and β-gal activities contained in detergent-solubilized cell extracts were measured. […] Data are the mean (±SE) luciferase activities of four independent experiments normalized to untreated GFP-expressing cells.
The transfectants were then stimulated with TGF-β1 (5 ng/ml) in the absence or presence of recombinant (10 mg/ml) GST, GST-CystC, or GST-D14CystC as indicated in FIG. 3B. […]

[4] = test system: NMuMG mammary epithelial cells; assay: TGF-β-mediated downregulation of E-cadherin in NMuMG cells; type: cell-based, murine; settings: recombinant protein treatment 10 μg/ml; TGF-β1 5 ng/ml, 36 hours; NMuMG cells
Description: as §2
The ability of TGF-β to alter E-cadherin expression also was monitored by immunoprecipitating E-cadherin from Buffer H/1% Triton X-100-solubilized (Schiemann et al., 2003) NMuMG whole cell extracts, followed by immunoblotting with anti-E-cadherin antibodies (1:1000 dilution).
as §3
In another experiment, NMuMG cells were infected with ecotropic retrovirus encoding either GFP (i.e., control), CystC, or Δ14CystC, and subsequently were isolated by FACS-sorting for GFP expression to yield stable polyclonal populations of control, CystC, and Δ14CystC-expressing cells. The expression and secretion of recombinant CystC proteins by infected NMuMG and NRK cells was monitored by immunoblotting conditioned-media with anti-CystC antibodies. […]

For `CCCNC(=O)[C@H]1O[C@@H]1C(=O)N[C@H](C(=O)N1CCC[C@H]1C(=O)OC)[C@@H](C)CC` [CA-074ME, reference compound], the HT1080 cell invasiveness ([1]; n=3) was 101.0±5.6 % of control.

With `CC(=O)N[C@@H](CC(C)C)C(=O)N[C@H](C(=O)N[C@H](C=O)CCCCN)C(C)C` [cathepsin B inhibitor II, reference compound] (Ac-Leu-Val-Lys-aldehyde) the “reduction of HT1080 cell invasion through Matrigel matrices” value ([1]; n=3, p<0.05) was 47.1±8.5%.

B1: recombinant Jun(1-79): recombinant GST-Jun(1-79) fusion protein, control in the TGF-β1 binding assay (protein)
chain: MTAKMETTFYDDALNASFLPSESGPYGYSNPKILKQSMTLNLADPVGSLKPHLRAKNSDLLTSPDVGLLKLASPELERL
modifications: left off: a dimerising Fc or GST
B1 was tested, and the “binding of iodinated TGF-β1 to its cell surface receptors” value [2] was “no effect”.

B2: recombinant Δ14CystC: GST-CystC fusion protein with residues 80-93 deleted by site-directed mutagenesis, purified from E. coli (protein)
chain: MAGPLRAPLLLLAILAVALAVSPAAGSSPGKPPRLVGGPMDASVEEEGVRRALDFAVGEYNKASNDMYHSRALQVVRARLGRTTCTKTQPNLDNCPFHDQPHLKRKAFCSFQIYAVPWQGTMTLSKSTCQDA
modifications: left off: small tags and cut ends
notes: GST-CystC fusion protein with residues 80-93 deleted by site-directed mutagenesis, purified from E. coli
For B2, the “actin cytoskeletal reorganization stimulated by TGF-β” value [3] was “prevented”, the “3T3-L1 cell invasion stimulated by serum:TGF-β” value (3T3-L1 fibroblasts) was “selectively blocked” and the “luciferase activity stimulated by TGF-β (p3TP)” value (TGF-β signaling) was “significantly inhibited”. For the same molecule, the “TGF-β-mediated downregulation of E-cadherin” value [4] was “antagonized”.
